The target in this assay is endostatin (UniProt P39060). Put plainly: SPR (Biacore), Fn F4-5 immobilized on CM5 chip, concentration series of endostatin.

From patent US8114832 come the findings set out here.

Chain of endostatin (P39060 1572-1754): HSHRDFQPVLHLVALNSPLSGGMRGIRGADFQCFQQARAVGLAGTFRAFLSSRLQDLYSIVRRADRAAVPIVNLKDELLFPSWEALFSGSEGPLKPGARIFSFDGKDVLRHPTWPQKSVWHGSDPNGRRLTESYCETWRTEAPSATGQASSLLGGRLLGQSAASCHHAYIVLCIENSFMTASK

On to “Fn F4-5-His6 (from UniProt P02751 182-276)”, for which the concentration of ligand that results in half maximum binding was 800 nM.
